Measured values published in US20230374083A1.

Assays:
[1] = biological target: trastuzumab; test: cell-based or functional assay
[2] = biological target: IgG1 in the sera of humans
[3] = biological target: human IVIg (an intravenous human immunoglobulin)
[4] = biological target: IgG1 in the sera of mice

Q: How did the cleavage of human IgG1, SDS-PAGE of cleavage products (fold of wild-type IdeE) [1] turn out when IdeE A59V (enzyme) was run?
A: > 2

Q: How did the cleavage of human IgG1, SDS-PAGE of cleavage products (fold of wild-type IdeE) [1] turn out when IdeE T24A (enzyme) was run?
A: > 2

Q: With IdeE R280H (enzyme) as the molecule, how does the cleavage of human IgG1, SDS-PAGE of cleavage products (fold of wild-type IdeE) [1] read?
A: > 2

Q: How did the cleavage of human IgG1, SDS-PAGE of cleavage products (fold of wild-type IdeE) [1] turn out when IdeE A59L (enzyme) was run?
A: > 2

Q: For IdeE T8W (enzyme), which cleavage of human IgG1, SDS-PAGE of cleavage products (fold of wild-type IdeE) [1] is on record?
A: > 2

Q: How did the cleavage of human IgG1, SDS-PAGE of cleavage products (fold of wild-type IdeE) [1] turn out when IdeE E97D (enzyme) was run?
A: > 2

Q: IdeE T8D (enzyme) was tested. Which cleavage of human IgG1, SDS-PAGE of cleavage products (fold of wild-type IdeE) [1] did it give?
A: > 2

B1: E97D_del18 (protein)
chain: MITSVWTKGVTPLTPEQFRYNNEDVIHAPYLAHQGWYDITKAFDGKDNLLCGAATAGNMLHWWFDQNKTEIEAYLSKHPDKQKIIFNNQELFDLKAAIDTKDSQTNSQLFNYFRDKAFPNLSARQLGVMPDLVLDMFINGYYLNVFKTQSTDVNRPYQDKDKRGGIFDAVFTRGDQTTLLTARHDLKNKGLNDISTIIKQELTEGRALALSHTYANVSISHVINLWGADFNAEGNLEAIYVTDSDANASIGMKKYFVGINAHRHVAISAKKIEGENIGAQVLGLFTLSSGKDIWQKLSHHHHHH
Q: How did the “cleavage of serum IgG in vitro, reducing SDS-PAGE (25 kD Fc fragment)” value [2] turn out when B1 was run?
A: E97D_del18 can effectively and specifically cleave IgG1 in the sera of humans

Q: And the “cleavage of human IVIg in mouse serum or plasma in vitro, non-reducing SDS-PAGE” value [3]?
A: E97D_del18 can effectively cleave human IVIg in both the sera and plasmas of mice

Q: What about the “cleavage of serum IgG in vitro, reducing SDS-PAGE (25 kD Fc fragment)” value [4] of the same molecule?
A: has very low or no activity of cleaving IgG1 in the sera of mice
